What was measured:
Experiment in all cases: cell-based or functional assay
[1] = target: full-length subtype B consensus gp160 expressed on HEK293 cells (vector pConBgp160-opt) (HIV-1 subtype B (consensus))
[2] = target: subtype C consensus gp160 protein expressed on HEK293 cells (vector pConCgp160-opt) (HIV-1 subtype C (consensus))
[3] = target: CD19 on REH cells (human) (UniProt P15391)
UniProt P15391, sequence (P15391 20-556): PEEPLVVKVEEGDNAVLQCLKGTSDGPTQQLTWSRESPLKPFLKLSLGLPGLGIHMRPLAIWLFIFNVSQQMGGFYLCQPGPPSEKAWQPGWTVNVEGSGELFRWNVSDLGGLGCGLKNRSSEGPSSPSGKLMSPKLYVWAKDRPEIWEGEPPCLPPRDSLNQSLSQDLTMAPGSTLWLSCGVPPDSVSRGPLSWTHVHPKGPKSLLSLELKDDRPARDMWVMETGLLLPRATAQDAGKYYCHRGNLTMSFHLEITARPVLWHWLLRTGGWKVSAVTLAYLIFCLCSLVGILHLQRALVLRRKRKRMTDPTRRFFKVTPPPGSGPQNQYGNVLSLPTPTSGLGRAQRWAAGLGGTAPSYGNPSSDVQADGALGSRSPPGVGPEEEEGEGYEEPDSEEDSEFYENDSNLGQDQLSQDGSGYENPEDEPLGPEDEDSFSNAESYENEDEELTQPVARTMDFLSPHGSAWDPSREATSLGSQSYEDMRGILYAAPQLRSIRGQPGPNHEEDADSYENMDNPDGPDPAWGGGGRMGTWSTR

Question: With DNP-conjugated 10-1074 (antibody) as the substance, how does the percentage of gp160+ cells killed by anti-DNP CAR-NK cells, flow cytometry, 8 h, E:T 25:1, adaptor 2 nM [1] read?
Answer: 50%

Question: What about the percentage of gp160+ cells killed by anti-DNP CAR-T cells, E/T 1:1, 48 h, adaptor 10 nM [1] of the same substance?
Answer: 29%

Question: What about the percentage of gp160+ cells killed by universal CAR-NK cells [1] of the same substance?
Answer: 53.1%

Question: What about the percentage of gp160+ cells killed by universal CAR-NK cells [2] of the same substance?
Answer: 29.8%

Question: What about the percentage of subtype C gp160+ cells killed by anti-DNP CAR-NK cells, 8 h, E:T 25:1, adaptor 2 nM [2] of the same substance?
Answer: 30%

Question: “DNP-conjugated anti-CD19 antibody (clone FMC63)” was tested. Which percentage of REH cells killed by anti-DNP CAR-NK cells, flow cytometry, E:T 25:1, overnight, adaptor 50 nM [3] did it give?
Answer: 59%

Question: What about the percentage of REH cells remaining alive, flow cytometry, E:T 25:1, overnight, adaptor 50 nM [3] of the same substance?
Answer: 41%

Question: Which results are given for DNP-conjugated antibody 2G12?
Answer: adaptor concentration at which IFN-γ production of CAR-NK cells reached a plateau [1]: > 2 nM; percentage of gp160+ cells killed by anti-DNP CAR-NK cells, flow cytometry, 8 h, E:T 25:1, adaptor 2 nM [1]: 50%; percentage of gp160+ cells killed by anti-DNP CAR-T cells, E/T 1:1, 48 h, adaptor 10 nM [1]: 34%; percentage of gp160+ cells killed by universal (anti-DNP) CAR-NK cells with DNP-conjugated 2G12, E:T 25:1 [1]: 50%

Question: Which results are given for DNP-conjugated PG9 (antibody)?
Answer: percentage of gp160+ cells killed by anti-DNP CAR-NK cells, flow cytometry, 8 h, E:T 25:1, adaptor 2 nM [1]: 50%; percentage of subtype C gp160+ cells killed by anti-DNP CAR-NK cells, 8 h, E:T 25:1, adaptor 2 nM [2]: 30%

Question: Which IFN-γ production by anti-DNP CAR-NK cells (ELISA), adaptor 2 nM, against the isotype control [1] does the source give for DNP-conjugated 3BNC117 (antibody) here?
Answer: 2 fold

Question: What about the percentage of gp160+ cells killed by anti-DNP CAR-NK cells, flow cytometry, 8 h, E:T 25:1, adaptor 2 nM [1] of the same substance?
Answer: 50%

Question: What about the percentage of gp160+ cells killed by universal CAR-NK cells [1] of the same substance?
Answer: 45.5%

Question: And the percentage of gp160+ cells killed by universal CAR-NK cells [2]?
Answer: 19.7%

Question: And the percentage of subtype C gp160+ cells lysed by anti-DNP CAR-NK cells, 8 h, E:T 25:1, adaptor 2 nM [2]?
Answer: 20%

Question: Which results are given for DNP-conjugated VRC01 (antibody)?
Answer: percentage of gp160+ cells killed by anti-DNP CAR-NK cells, flow cytometry, 8 h, E:T 25:1, adaptor 2 nM [1]: 28.5%; percentage of subtype C gp160+ cells lysed by anti-DNP CAR-NK cells, 8 h, E:T 25:1, adaptor 2 nM [2]: 20%

Question: For “2G12-based anti-gp160 CAR (pFUW-2G12-CD28-CD3ζ) on NK-92MI cells (from UniProt P01732 138-182; P10747 153-220; P20963 52-164)”, which percentage of gp160+ cells killed by 2G12 CAR-NK cells, E:T 25:1 [1] is on record?
Answer: 60%

Source: patent publication US20230295277A1
